Publication PMC10269810, “RNA Encapsulation Mode and Evolutionary Insights from the Crystal Structure of Emaravirus Nucleoprotein”
Several values for one entry are separate records, joined by “and”; a condition that tells them apart may be missing. Identical values can stand only once.

Key:
[1] = biological target: fig mosaic virus nucleoprotein, full length (N^fl) (fig mosaic virus); test: SEC-MALS; RNA-free purified N^fl; conditions not given
[2] = biological target: trypsin-treated fig mosaic virus nucleoprotein lacking the first 45 N-terminal residues (N^ΔN45) (fig mosaic virus); test: crystal structure; N^ΔN45 co-crystallized with 42-mer poly(U) ssRNA, 20% PEG 3350, 0.2 M magnesium formate pH 5.9, space group P2_(1)2_(1)2_(1)
[3] = biological target: trypsin-treated fig mosaic virus nucleoprotein lacking the first 45 N-terminal residues (N^ΔN45) (fig mosaic virus); test: crystal structure; RNA-free N^ΔN45, hanging drop at 16°C, sodium formate pH 7.0, space group P2_(1), four molecules in the asymmetric unit
FMV N full length (Nfl) = FMV N full length (Nfl) (Fig mosaic virus (Fimoviridae, …, UniProt I2FFM8 1-315)); test: fluorescence polarization; RNA 1 uM; ITC: 20 mM Tris pH 7.4, 150 mM NaCl, 5% glycerol, 5 mM beta-ME, 25 C; FP: 1 uM RNA, 37 C 20 min incubation, buffer not stated (protein stock 20 mM Tris pH 7.5); settings: protein: recombinant; tags: N-terminal 6xHis removed by TEV; chain copies: 4; label: 5' 6-carboxyfluorescein (FAM); single strand

Molecule: fig mosaic virus nucleoprotein, full length (N^fl) (natural protein)
- stoichiometry N [1]: 4 and 3 and 5

Molecule: trypsin-treated fig mosaic virus nucleoprotein lacking the first 45 N-terminal residues (N^ΔN45) (domain or fragment)
- stoichiometry N [2]: 4
- stoichiometry N [3]: 4

B1: poly(rU) 42-mer, FAM (ssRNA)
RNA: UUUUUUUUUUUUUUUUUUUUUUUUUUUUUUUUUUUUUUUUUU
- Kd (FMV N full length (Nfl)): ~5 µM
